From US20250346679A1 (INVOX PHARMA, published 2025)

T1: human OX40 (human, UniProt P43489 29-216)
T1 sequence (looked up): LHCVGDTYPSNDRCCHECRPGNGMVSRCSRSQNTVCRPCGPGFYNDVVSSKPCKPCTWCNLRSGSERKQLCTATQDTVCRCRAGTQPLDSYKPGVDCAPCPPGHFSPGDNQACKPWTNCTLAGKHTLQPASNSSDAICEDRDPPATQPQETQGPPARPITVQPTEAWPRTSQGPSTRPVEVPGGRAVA

T2: human GITR (human, UniProt Q9Y5U5 26-161, limits assumed)
T2 sequence (looked up): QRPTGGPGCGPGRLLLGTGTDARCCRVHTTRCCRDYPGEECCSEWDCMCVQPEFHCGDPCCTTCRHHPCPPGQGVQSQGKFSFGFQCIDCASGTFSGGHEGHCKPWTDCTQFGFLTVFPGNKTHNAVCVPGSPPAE

T3: cCD137-mFc-Avi (cynomolgus; mouse)
T3 construct: also called cynomolgus CD137-mFc-Avi; Cyno CD137-mFc-Avi; not shown: mouse IgG2a Fc domain (mIgG2a Fc)
T3 chain: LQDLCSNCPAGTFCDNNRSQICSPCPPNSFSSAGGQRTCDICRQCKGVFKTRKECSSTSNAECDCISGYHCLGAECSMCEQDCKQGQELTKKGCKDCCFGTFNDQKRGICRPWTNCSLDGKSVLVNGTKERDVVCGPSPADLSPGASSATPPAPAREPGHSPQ


Experiments:
[1] = target: human CD137, cell-surface (human, UniProt Q07011 24-255); test: cell-based or functional assay
human CD40 = human CD40 (human, UniProt P25942 21-193, limits assumed); test: SPR, receptor amine-coupled to CM5 (~1000 RU)
Protocol: (§1) The specificity of the anti-human CD137 Fcabs for human CD137 compared to other related TNFSFR family members was tested. 8 of the Fcabs were tested in mock mAb² (HeID1.3) format and measured by SPR in a Biacore T200 (GE Healthcare) by testing for binding to other human TNFRSF receptors: CD40, OX40 and GITR. Amine coupling (amine coupling kit, GE Healthcare, BR-1000-50) was used to coat human CD40, GITR and OX40 to approximately 1000 RU in Biacore CM5 chips (GE Healthcare, cat no 29149603). […] The chip was regenerated by injection of 10 mM glycine pH 2.5 for 12 s at 30 μl/min. Antibodies specific to the different TNFRSF members were used as positive controls to verify Biacore chip coating. Data was double reference subtracted and analysed using BIAevaluation 3.2 software.

human OX40 = target: T1, human OX40; test: SPR, receptor amine-coupled to CM5 (~1000 RU)
Protocol: as §1

human GITR = target: T2, human GITR; test: SPR, receptor amine-coupled to CM5 (~1000 RU)
Protocol: as §1

hCD137-mFc-Avi = target: T4, hCD137-mFc-Avi (human; mouse, UniProt Q07011 24-186, biotin on the Avi sequence where the biotinylated form was used); test: SPR, mAb^2 captured by anti-human Fab, antigen in flow, 1:1 Langmuir fit
T4 construct: also called human CD137-mFc-Avi; dimeric human CD137; not shown: mouse IgG2a Fc domain (mIgG2a Fc)
Protocol: (§2) An anti-human Fab capture antibody was immobilised on all four flow cells of a CM5 series S chip (GE Healthcare #BR-1005-30) to an average surface density of 6000 RU following the manufacturer's recommendations (GE Healthcare, human Fab capture Kit, #28958325). […] Each mAb² was captured to approximately 150 RU by injecting a 3 μg/ml solution of mAb² diluted in HBS-EP+ buffer (GE Healthcare #BR1006-69) for 60 seconds at 30 μl/min. Then different concentrations of human, cyno or mouse CD137 antigen (unbiotinylated human, cyno or mouse CD137-mFc-Avi or human CD137-Avi-His) in HBS-EP+ buffer were flowed over the chip for 3 min at 60 μl/min and then allowed to dissociate for 10 minutes. After each antigen concentration the chip was regenerated by infecting 10 mM glycine pH 2.1 at a flow rate of 30 μl/min for 30 seconds. Buffer HBS-EP+ was injected before the highest concentration of antigen and after the lowest concentration of antigen for reference subtraction, and one of the concentrations at random was repeated twice. The binding kinetics were fit with a 1:1 Langmuir model to generate equilibrium binding constants (KD) for each sample. Data analysis was performed with BiaEvaluation software version 3.2.

hCD137-Avi-His = target: T5, hCD137-Avi-His (human, UniProt Q07011 24-186); test: as above
T5 construct: also called human CD137-Avi-His; monomeric human CD137
Protocol: as §2

cCD137-mFc-Avi = target: T3, cCD137-mFc-Avi; test: as above
Protocol: as §2

[2] = target: T6, biotinylated hPD-L1-Avi-His (Acro Biosystems, PD1-H82E5) (human, UniProt Q9NZQ7 19-238, biotinylated); test: SPR, antibody captured on Protein A chip, antigen in flow
T6 construct: bought; also called Human PD-L1-His; not shown: Avi and His tags of the bought product

[3] = target: T7, cPD-L1-His (Acro Biosystems, PD1-C52H4) (cynomolgus, UniProt Q9NZQ7 19-238 (human entry)); test: as above
T7 construct: bought; also called Cyno PD-L1-His; Cynomolgus PD-L1-His; not shown: His tag of the bought product
T7 sequence (Q9NZQ7 other isoform, or with tags, fused parts or gaps): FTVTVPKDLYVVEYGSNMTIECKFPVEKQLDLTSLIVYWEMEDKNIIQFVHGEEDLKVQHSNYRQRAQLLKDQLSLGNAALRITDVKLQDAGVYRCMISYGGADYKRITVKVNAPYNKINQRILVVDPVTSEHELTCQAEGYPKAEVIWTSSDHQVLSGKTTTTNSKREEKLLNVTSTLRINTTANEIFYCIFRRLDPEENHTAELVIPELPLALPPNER

Sequence of human CD40 (P25942 21-193 limits assumed): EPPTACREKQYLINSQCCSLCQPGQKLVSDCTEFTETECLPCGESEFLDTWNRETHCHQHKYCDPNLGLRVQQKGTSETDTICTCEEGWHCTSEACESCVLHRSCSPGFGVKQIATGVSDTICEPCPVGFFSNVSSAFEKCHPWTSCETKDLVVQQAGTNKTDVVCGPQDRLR
T5 sequence (Q07011 24-186): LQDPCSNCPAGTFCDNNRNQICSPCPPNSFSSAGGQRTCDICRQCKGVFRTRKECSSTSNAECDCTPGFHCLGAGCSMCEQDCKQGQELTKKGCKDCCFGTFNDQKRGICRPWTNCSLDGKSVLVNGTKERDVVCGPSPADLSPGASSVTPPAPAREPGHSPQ
T4 sequence (Q07011 24-186): as above
Sequence of human CD137, cell-surface (Q07011 24-255): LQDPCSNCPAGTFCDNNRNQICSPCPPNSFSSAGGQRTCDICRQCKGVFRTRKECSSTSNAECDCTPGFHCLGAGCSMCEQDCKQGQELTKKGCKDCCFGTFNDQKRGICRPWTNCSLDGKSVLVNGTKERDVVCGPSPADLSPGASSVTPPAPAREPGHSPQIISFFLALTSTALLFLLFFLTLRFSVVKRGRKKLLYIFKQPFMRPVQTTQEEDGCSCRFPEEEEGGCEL
T6 sequence (Q9NZQ7 19-238): as the sequence (Q9NZQ7 other isoform, or with tags, fused parts or gaps) above, with T33A, S34A, N62S, Q68R, R82Q, L173F, A185T, I192T, L215H counted along it

EC50, NF-κB luciferase assay, crosslinked with Protein L (+XL) [1] [nM] | binding result (human CD40) | binding result (human OX40) | binding result (human GITR) | Kd (hCD137-mFc-Avi) [nM] | Human monomeric CD137 KD fold difference relative to human dimeric KD (hCD137-Avi-His) [fold] | Kd (cCD137-mFc-Avi) [nM] | Kd [2] [nM] | Kd [3] [nM] | Binder
26.3 | no binding (tested: 1 µM) | no binding (tested: 1 µM) | no binding (tested: 1 µM) | 4.2 | 170 | 0.9 | – | – | FS22-053-008/HeID1.3 (bispecific antibody, human IgG1, kappa, mock mAb^2; also called FS22-053-008 (mock mAb^2 format)) heavy: QVQLQESGPGLVRPSQTLSLTCTVSGSTFSGYGVNWVRQPPGRGLEWIGMIWGDGNTDYNSALKSRVTMLVDTSKNQFSLRLSSVTAADTAVYYCARERDYRLDYWGQGSLVTVSSASTKGPSVFPLAPSSKSTSGGTAALGCLVKDYFPEPVTVSWNSGALTSGVHTFPAVLQSSGLYSLSSVVTVPSSSLGTQTYICNVNHKPSNTKVDKKVEPKSCDKTHTCPPCPAPELLGGPSVFLFPPKPKDTLMISRTPEVTCVVVDVSHEDPEVKFNWYVDGVEVHNAKTKPREEQYNSTYRVVSVLTVLHQDWLNGKEYKCKVSNKALPAPIEKTISKAKGQPREPQVYTLPPSRDELNPPYLFSNQVSLTCLVKGFYPSDIAVEWESNGQPENNYKTTPPVLDSDGSFFLYSKLTVDYWRWLEGNVFSCSVMHEALHNHYTQKSLSLSPG light: DIQMTQSPASLSASVGETVTITCRASGNIHNYLAWYQQKQGKSPQLLVYNAKTLADGVPSRFSGSGSGTQYSLKINSLQPEDFGSYYCQHFWSTPRTFGGGTKLEIKRTVAAPSVFIFPPSDEQLKSGTASVVCLLNNFYPREAKVQWKVDNALQSGNSQESVTEQDSKDSTYSLSSTLTLSKADYEKHKVYACEVTHQGLSSPVTKSFNRGEC
– | no binding (tested: 1 µM) | no binding (tested: 1 µM) | no binding (tested: 1 µM) | 5.5 | > 200 | 1.3 | – | – | FS22-053-011/HeID1.3 (bispecific antibody, human IgG1, kappa, mock mAb^2; also called FS22-053-011 (mock mAb^2 format)) heavy: QVQLQESGPGLVRPSQTLSLTCTVSGSTFSGYGVNWVRQPPGRGLEWIGMIWGDGNTDYNSALKSRVTMLVDTSKNQFSLRLSSVTAADTAVYYCARERDYRLDYWGQGSLVTVSSASTKGPSVFPLAPSSKSTSGGTAALGCLVKDYFPEPVTVSWNSGALTSGVHTFPAVLQSSGLYSLSSVVTVPSSSLGTQTYICNVNHKPSNTKVDKKVEPKSCDKTHTCPPCPAPELLGGPSVFLFPPKPKDTLMISRTPEVTCVVVDVSHEDPEVKFNWYVDGVEVHNAKTKPREEQYNSTYRVVSVLTVLHQDWLNGKEYKCKVSNKALPAPIEKTISKAKGQPREPQVYTLPPSRDELNPPYLFSNQVSLTCLVKGFYPSDIAVEWESNGQPENNYKTTPPVLDSDGSFFLYSKLTVDYWRWTDGNVFSCSVMHEALHNHYTQKSLSLSPG light: DIQMTQSPASLSASVGETVTITCRASGNIHNYLAWYQQKQGKSPQLLVYNAKTLADGVPSRFSGSGSGTQYSLKINSLQPEDFGSYYCQHFWSTPRTFGGGTKLEIKRTVAAPSVFIFPPSDEQLKSGTASVVCLLNNFYPREAKVQWKVDNALQSGNSQESVTEQDSKDSTYSLSSTLTLSKADYEKHKVYACEVTHQGLSSPVTKSFNRGEC
– | no binding (tested: 1 µM) | no binding (tested: 1 µM) | no binding (tested: 1 µM) | 4.3 | > 200 | 3.5 | – | – | FS22-172-004/HeID1.3 (bispecific antibody, human IgG1, kappa, mock mAb^2) heavy: QVQLQESGPGLVRPSQTLSLTCTVSGSTFSGYGVNWVRQPPGRGLEWIGMIWGDGNTDYNSALKSRVTMLVDTSKNQFSLRLSSVTAADTAVYYCARERDYRLDYWGQGSLVTVSSASTKGPSVFPLAPSSKSTSGGTAALGCLVKDYFPEPVTVSWNSGALTSGVHTFPAVLQSSGLYSLSSVVTVPSSSLGTQTYICNVNHKPSNTKVDKKVEPKSCDKTHTCPPCPAPELLGGPSVFLFPPKPKDTLMISRTPEVTCVVVDVSHEDPEVKFNWYVDGVEVHNAKTKPREEQYNSTYRVVSVLTVLHQDWLNGKEYKCKVSNKALPAPIEKTISKAKGQPREPQVYTLPPSRDELNYIYPPYNQVSLTCLVKGFYPSDIAVEWESNGQPENNYKTTPPVLDSDGSFFLYSKLTVGADRWLEGNVFSCSVMHEALHNHYTQKSLSLSPG light: DIQMTQSPASLSASVGETVTITCRASGNIHNYLAWYQQKQGKSPQLLVYNAKTLADGVPSRFSGSGSGTQYSLKINSLQPEDFGSYYCQHFWSTPRTFGGGTKLEIKRTVAAPSVFIFPPSDEQLKSGTASVVCLLNNFYPREAKVQWKVDNALQSGNSQESVTEQDSKDSTYSLSSTLTLSKADYEKHKVYACEVTHQGLSSPVTKSFNRGEC
32.6 | no binding (tested: 1 µM) | no binding (tested: 1 µM) | no binding (tested: 1 µM) | 1.5 | > 200 | 1.3 | – | – | FS22-172-003/HeID1.3 (bispecific antibody, human IgG1, kappa, mock mAb^2 without LALA) heavy: QVQLQESGPGLVRPSQTLSLTCTVSGSTFSGYGVNWVRQPPGRGLEWIGMIWGDGNTDYNSALKSRVTMLVDTSKNQFSLRLSSVTAADTAVYYCARERDYRLDYWGQGSLVTVSSASTKGPSVFPLAPSSKSTSGGTAALGCLVKDYFPEPVTVSWNSGALTSGVHTFPAVLQSSGLYSLSSVVTVPSSSLGTQTYICNVNHKPSNTKVDKKVEPKSCDKTHTCPPCPAPELLGGPSVFLFPPKPKDTLMISRTPEVTCVVVDVSHEDPEVKFNWYVDGVEVHNAKTKPREEQYNSTYRVVSVLTVLHQDWLNGKEYKCKVSNKALPAPIEKTISKAKGQPREPQVYTLPPSRDELPYIIPPYNQVSLTCLVKGFYPSDIAVEWESNGQPENNYKTTPPVLDSDGSFFLYSKLTVGADRWLEGNVFSCSVMHEALHNHYTQKSLSLSPG light: DIQMTQSPASLSASVGETVTITCRASGNIHNYLAWYQQKQGKSPQLLVYNAKTLADGVPSRFSGSGSGTQYSLKINSLQPEDFGSYYCQHFWSTPRTFGGGTKLEIKRTVAAPSVFIFPPSDEQLKSGTASVVCLLNNFYPREAKVQWKVDNALQSGNSQESVTEQDSKDSTYSLSSTLTLSKADYEKHKVYACEVTHQGLSSPVTKSFNRGEC
– | – | – | – | – | – | – | 1.34 | 2.45 | G1-AA/lam-G02v3 (antibody, human IgG1, L234A L235A, V domains shown, anti-PD-L1 IgG1 with LALA, lambda light chain; also called G1-AA/lambdav3; G1-AA/Iam-G02v3) VH: EVQLVQSGAEVKRPGASVKVSCKASGYTFTSYGISWVRQAPGQGLEWMGWISAYSGGTNYAQKLQGRVTMTTDTSTSTAYMELRSLRSDDTAVYYCARDLFPTIFGVSYYYYWGQGTLVTVSS VL: QSALTQPASVSGSPGQSITISCTGTSSDVGGYNYVSWYQQFPGKAPKLMIFEVTNRPSGVSDRFSGSKSDNTASLTISGLQAEDEAEYYCSSFKRGSTLVVFG
– | – | – | – | – | – | – | 0.5 | 0.89 | G1-AA/E05v2 (antibody, human IgG1, kappa, L234A L235A, V domains shown, anti-PD-L1 IgG1 with LALA) VH: EVQLVQSGAEVKRPGASVKVSCKASGYTFTSYGISWVRQAPGQGLEWMGWISAYSGGTNYAQKLQGRVTMTTDTSTSTAYMELRSLRSDDTAVYYCARDLFPTIFGVSYYYYWGQGTLVTVSS VL: DIQMTQSPSTLSASVGDRVTITCRASQSISGRLAWYQQKPGKAPNLLIYEASNLESGVPSRFSGSGSGTEFTLTISSLQPEDFATYYCQQSYSTPRVTFGQGTKVEIKR
